11 substances from PMC12106674 can be followed below.

Assay [1] deals with recombinant biotinylated human FcRn (Immunitrack) (human) (UniProt P55899). The experiment in a line: SPR; biotinylated human FcRn (~100 RU) captured on an SA sensor chip; 2-fold serial dilutions of albumin variants or GLP-1 albumin fusions injected in duplicates; pH 5.5 PBS (177 mM phosphate, 85 mM NaCl, 0.05% Tween 20), 25 °C, 40 µL/min; 1:1 Langmuir model.
The target in assay [2] is human FcRn of the human FcRn Affinity Column (Roche) (human) (UniProt P55899). Description: analytical FcRn affinity chromatography; human FcRn Affinity Column (Roche); albumin or GLP-1 albumin fusions (2 mg/mL) loaded at pH 5.5 and eluted by a pH gradient from 5.5 (20 mM MES/HCl, 140 mM NaCl) to 8.8 (20 mM Tris/HCl, 140 mM NaCl), 0.5 mL/min, 110 min, room temperature.
For assay [3], the target named is recombinant biotinylated human FcRn (Immunitrack) (human) (UniProt P55899).
The target is the same in assay [4]. This is another data set of the same source.
The target of assay [5] is human GLP-1 receptor (GLP-1R) on reporter cells (human) (UniProt P43220).
For assay [6], the target named is recombinant biotinylated human FcRn (Immunitrack) (human) (UniProt P55899). This is another data set of the same source.

Sequence of UniProt P43220 (P43220 24-463): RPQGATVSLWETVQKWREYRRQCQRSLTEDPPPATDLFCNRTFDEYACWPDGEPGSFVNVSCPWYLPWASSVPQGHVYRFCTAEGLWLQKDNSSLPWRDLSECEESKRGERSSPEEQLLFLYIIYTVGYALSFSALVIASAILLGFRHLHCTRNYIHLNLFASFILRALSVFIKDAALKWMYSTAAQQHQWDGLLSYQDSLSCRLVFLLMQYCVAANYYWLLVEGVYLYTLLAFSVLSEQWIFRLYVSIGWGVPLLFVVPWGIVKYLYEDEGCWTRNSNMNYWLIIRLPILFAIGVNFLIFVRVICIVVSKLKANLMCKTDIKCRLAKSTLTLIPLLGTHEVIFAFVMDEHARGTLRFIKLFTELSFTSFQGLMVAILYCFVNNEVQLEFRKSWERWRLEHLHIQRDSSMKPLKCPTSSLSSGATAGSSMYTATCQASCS

Usually Kd stands for the equilibrium constant for the complex coming apart. As usually defined, the koff is the rate constant with which the complex falls apart. Usually kon stands for the rate constant with which the complex forms. Consider “GLP-1 LX (GLP-1 albumin fusion with WT albumin lacking L585)”, for which, in assay [1], the Kd turned out to be 515 nM, the koff was found to be 0.0221 s⁻¹ and the on-rate (kon) was found to be 43000 M⁻¹ s⁻¹. The substance further displayed an elution pH in assay [2] of 6.3 pH. Also, the cellular recycling in HERA with HMEC-1-FcRn cells (800 nM), relative to GLP-1 WT in assay [3] is 2 fold less. Moreover, the plasma half-life after IV injection in homozygous human FcRn Tg32 mice (GLP-1 WT: 1.3 days) in assay [4] was determined as 21.6 h.

In the case of “GLP-1 QMP (GLP-1 albumin fusion with QMP-engineered albumin)”, the EC50 of luciferase signal in human GLP-1R reporter cells (0.08–6250 nM, 23 h) in assay [5] stood at 44.4 nM. Besides, in assay [1], the Kd is below 0.03 nM, the koff was below 1e-05 s⁻¹ and the kon was 381000 M⁻¹ s⁻¹. Moreover, in assay [2], the elution pH was found to be 7.8 pH. In addition, in assay [3], the cellular recycling in HERA with HMEC-1-FcRn cells (800 nM), relative to GLP-1 WT stood at 4.5 fold. Further, in assay [4], the plasma half-life after IV injection in homozygous human FcRn Tg32 mice (GLP-1 WT: 1.3 days) was determined as 64.8 h.

Regarding “GLP-1 QMP/LX (GLP-1 albumin fusion with QMP-engineered albumin lacking L585)”, the Kd in assay [1] turned out to be 0.2 nM.

As to “GLP-1 WT (albiglutide-mimic; two GLP-1(7-36) A2G in tandem fused to the N-terminus of human WT albumin) (from UniProt P02768 25-609)”, the EC50 of luciferase signal in human GLP-1R reporter cells (0.08–6250 nM, 23 h) in assay [5] turned out to be 50 nM. Besides, in assay [1], the Kd came to 114 nM. In assay [2], this substance showed an elution pH of 6.7 pH.

On to “QMP variant recombinantly expressed without the L585 residue (QMP/LX) (natural protein)”, for which, in assay [1], the Kd amounted to 0.9 nM, the koff was determined as 0.0001 s⁻¹ and the kon turned out to be 115000 M⁻¹ s⁻¹. The plasma half-life after IV injection in hemizygous human FcRn Tg32 mice in assay [6] worked out at 103 h.

For “QMP-engineered human albumin (E505Q, T527M, K573P), full-length (natural protein)”, in assay [1], the Kd came out at 0.3 nM, the off-rate (koff) was 4e-05 s⁻¹ and the kon worked out at 144000 M⁻¹ s⁻¹. The plasma half-life after IV injection in hemizygous human FcRn Tg32 mice in assay [6] was 108 h.

As to “Tanzeum (albiglutide) (from UniProt P02768 25-609)”, the dissociation constant Kd in assay [1] was 76.1 nM. The substance further showed an elution pH in assay [2] of 6.9 pH.

For the substance human albumin L585I (natural protein), in assay [1], the Kd came to 604 nM, the koff came to 0.0175 s⁻¹ and the kon amounted to 29000 M⁻¹ s⁻¹.

human albumin L585M (natural protein): in assay [1], the Kd came out at 678 nM, the koff stood at 0.0197 s⁻¹ and the kon turned out to be 29000 M⁻¹ s⁻¹.

In the case of human albumin L585V (natural protein), in assay [1], the Kd is 684 nM, the koff was found to be 0.0233 s⁻¹ and the kon is 34000 M⁻¹ s⁻¹.

For the substance “unfused GLP-1(7–36) included in the reporter assay kit (peptide)”, in assay [5], the EC50 of luciferase signal in human GLP-1R reporter cells (0.00062–50 nM, 23 h) was determined as 0.28 nM.
